How the values were obtained:
[1] = molecular target: T1, recombinant human PDGF-BB (human, UniProt P01127 82-190); test: cell-based or functional assay
[2] = molecular target: T1, recombinant human PDGF-BB; test: competition ELISA: blocks biotin-hPDGF-BB binding to coated hPDGF-Rβ-Fc
Description: Plates were then washed four times with wash buffer (TBS, 0.05% Tween-20) and blocked with Superblock blocking buffer (Thermo Scientific, cat#37535). During the blocking step, supernatants, antibodies, benchmark compounds or DVD-Ig were diluted in assay diluent (10% Superblock containing 0.05% surfactamps) and an eight point titration of each sample molecule was performed. […] Following incubation, plates were washed four times with wash buffer. Detection reagent Streptavidin-polyHRP-40 (Fitzgerald, cat#65r-s104phrp) was diluted in assay diluent and added to plates (50 μL) for 45 minutes at 25° C. with shaking. Plates were washed four times with wash buffer and developed with the addition of Enhanced K-blue TMB substrate (Neogen, cat#308177). The reaction was stopped with 2N sulfuric acid (VWR, cat# BDH3500-1) and the absorbance was read at 450 nm-570 nm. […] Data was analyzed using Softmax Pro 4.8 software and IC₅₀ values calculated using a sigmoidal dose response (variable slope) fit in GraphPad Prism 5.

[3] = molecular target: T2, Human PDGF-BB (human, UniProt P01127 82-190); test: SPR (Biacore), antibody captured via anti-human Fc, antigen in solution; footnote *: heterogeneous off-rate
T2 construct: Recombinant human PDGF-BB, a homodimer of two B chains; also called hPDGF-BB; huPDGF-BB
T2 sequence (P01127 82-190 limits assumed): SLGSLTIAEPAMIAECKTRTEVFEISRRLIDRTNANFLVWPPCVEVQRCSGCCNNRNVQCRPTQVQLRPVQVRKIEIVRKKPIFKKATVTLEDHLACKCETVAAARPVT
Description: For example, approximately 9000 RU of goat anti-human Fc specific polyclonal antibody (Thermo Fisher Scientific Inc., Rockford, Ill.) diluted in 10 mM sodium acetate (pH 4.5) is directly immobilized across a CM5 research grade biosensor chip using a standard amine coupling kit according to manufacturer's instructions and procedures at 25 μg/ml. Unreacted moieties on the biosensor surface were blocked with ethanolamine. For kinetic analysis, rate equations derived from the 1:1 Langmuir binding model were fitted simultaneously to multiple antigen injections (using global fit analysis) with the use of Scrubber 2 (BioLogic Software), Biacore Biaevaluation 4.0.1 software or Biacore T100 Evaluation software. Purified antibodies or DVD-Ig molecules were diluted in running buffer for capture across goat anti-human Fc reaction surfaces. Antibodies or DVD-Ig molecules to be captured as a ligand (1 μg/ml) were injected over reaction matrices at a flow rate of 10 μl/minute. During the assay, all measurements were referenced against the capture surface alone (i.e., with no captured antibody or DVD-Ig molecule). […] The equilibrium dissociation constant KD (M) of the reaction between antibodies and the target antigen was then calculated from the kinetic rate constants by the following formula: KD=Koff/Kₒₙ. Binding was recorded as a function of time and kinetic rate constants were calculated.

[4] = molecular target: T2, Human PDGF-BB; test: SPR (Biacore), antibody captured via anti-human Fc, antigen in solution
In short: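 Antibodies or DVD-Ig molecules (1 μg/ml) were captured on an anti-human Fc CM5 surface, with antigen injected in solution and responses referenced to the capture-only surface. Rate constants came from a global 1:1 Langmuir fit, and KD = koff/kon.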

T1 sequence (P01127 82-190 limits assumed): as above

| Binder | Phospho-Tyr751/hPDGF-BB Neutralization [1] [nM] | huPDGF-BB Neutralization Potency (nM) in NIH-3T3 Cells [1] [nM] | IC50 [2] [nM] | Kd [3] [nM] | kon [4] [M⁻¹ s⁻¹] |
| --- | --- | --- | --- | --- | --- |
| BDI-6A3-A9 (antibody, IgG2b, V domains shown, Rat hybridoma monoclonal antibody) VH: EVQLVESGGGLVQPGRSLKFSCAASGFSFSDSAMAWVRQAPKKGLEWVATIIYDGSGTYYRDSVKGRFTISRDNAKSTLYLQMDSLRSEDTATYYCARLGFNYGNYGYYVMDAWGQGASVTVSS VL: QFTLTQPKSVSGSLRNTITIPCERSSGDIGDSYVSWYQQHLGRPPINVIFADDQRPSEVSDRFSGSIDSSSNSASLTITNLQMDDEADYFCQSYDSNIDINIVFGGGTKLTVL | 1.62 | > 5 | 3.23 |  |  |
| BDI-1E1-D5 (antibody, IgG2b, V domains shown, Rat hybridoma monoclonal antibody) VH: EVKLQQSGDELVRPGASVKMSCKASGYTFTDYVMHWVKQSPGQGLEWIGTIIPLIDTTSYNQKFKGKATLTADKSSNTAYMELSRLTSEDSAVYYCARTSPYYYSSYDVMDAWGQGASVTVSS VL: NIQLTQSPSLLSASVGDRVTLSCKGSQNINNYLAWYQQKLGEAPKLLIYKTNNLQTGIPSRFSGCGSGTDYTLTISSLHSEDLATYYCYQYDNGYTFGAGTKLELK | 1.06 | > 5 | > 10 |  |  |
| hBDI-9E8.8 (antibody, V domains shown, Humanized IgG) VH: EVTLRESGPALVKPTQTLTLTCTFSGFSLSTYGMGVGWIRQPPGKGLEWLANIWWDDDKYYNPSLKNRLTISKDTSKNQAVLTITNMDPVDTATYYCARIESIGTTYSFDYWGQGTMVTVSS VL: EFVLTQSPGTLSLSPGERATLSCERSSGDIGDSYVSWYQQKPGQAPRLVIYADDQRPSGIPDRFSGSGSGTDFTLTISRLEPEDFAVYYCQSYDINIDIVFGGGTKVEIK |  |  |  | ≤ 0.017 | ≥ 1e+07 |
| hBDI-5H1.7 (antibody, V domains shown, Humanized IgG) VH: EVTLKESGPALVKPTQTLTLTCTFSGFSLSTFGMGVGWIRQPPGKALEWLANIWWDDDKYYNPSLKNRLTISKDTSKNQAVLTITNMDPVDTATYYCARISTGISSYYVMDAWGQGTTVTVSS VL: EIVLTQSPGTLSLSPGERATLSCERSSGDIGDTYVSWYQQKPGQAPRLLIYGNDQRPSGIPDRFSGSGSGTDFTLTISRLEPEDFAVYYCQSYDSDIDIVFGGGTKVEIK |  |  |  | ≤ 2.9 | ≥ 1e+07 |
| hBDI-5H1.8 (antibody, V domains shown, Humanized IgG) VH: EVTLKESGPALVKPTQTLTLTCTFSGFSLSTFGMGVGWIRQPPGKALEWLANIWWDDDKYYNPSLKNRLTISKDTSKNQAVLTITNMDPVDTATYYCARISTGISSYYVMDAWGQGTTVTVSS VL: EFVLTQSPGTLSLSPGERATLSCERSSGDIGDTYVSWYQQKPGQAPRLVIYGNDQRPSGIPDRFSGSGSGTDFTLTISRLEPEDFAVYYCQSYDSDIDIVFGGGTKVEIK |  |  |  | ≤ 72 | ≥ 1e+07 |
| hBDI-9E8.13 (antibody, V domains shown, Humanized IgG) VH: EVTLRESGPALVKPTQTLTLTCTFSGFSLSTYGMGVGWIRQPPGKGLEWLANIWWDDDKYYNPSLKNRLTISKDTSKNQAVLTITNMDPVDTATYYCARIESIGTTYSFDYWGQGTMVTVSS VL: DFQLTQSPSSLSASVGDRVTITCERSSGDIGDSYVSWYQQKPGKAPKNVIYADDQRPSGVPSRFSGSGSGNSASLTISSLQPEDFATYYCQSYDINIDIVFGQGTKVEIK |  |  |  | ≤ 0.1 | ≥ 1e+07 |
| BDI-5G2-F9 (antibody, IgG2b, V domains shown, Rat hybridoma monoclonal antibody) VH: QVTLKESGPGILQPSQTLSLTCTFSGFSLSTFGMGVGWIRQPSGKGLEWLANIWWDDDKYYNPSLKNRLTISKDTSNSQAFLEITNVDTADTATYYCARISTGISSYYVMDAWGQGASVTVSS VL: QFTLTQPKSVSGSLRSTITIPCERSSGDIGDTYVSWYQQHLGRPPINVIYGNDQRPSEVSDRFSGSIDSSSNSASLTITNLQMDDEADYFCQSYDSDIDIVFGGGTKLTVL | 0.923 | 0.741 | 1.06 |  |  |
| hBDI-5H1.13 (antibody, V domains shown, Humanized IgG) VH: EVTLKESGPALVKPTQTLTLTCTFSGFSLSTFGMGVGWIRQPPGKALEWLANIWWDDDKYYNPSLKNRLTISKDTSKNQAVLTITNMDPVDTATYYCARISTGISSYYVMDAWGQGTTVTVSS VL: DFQLTQSPSSLSASVGDRVTITCERSSGDIGDTYVSWYQQKPGKAPKNVIYGNDQRPSGVPSRFSGSGSGNSATLTISSLQPEDFATYFCQSYDSDIDIVFGQGTKVEIK |  |  |  | ≤ 0.49 | ≥ 1e+07 |

Reference: patent publication US20170015742A1 (published 2017)
